The record followed here is US12258605B2, “Alkane oxidation by modified hydroxylases” (The California Institute of Technology, priority 2005, dated 2025).

Numbering of substitutions follows the chain as printed. In names and notes the source's numbering stands. Marks after values point to notes of the source that are not given here.

Assay type in all cases: biochemical
The nature of assay [1]: Methane to methanol conversion (alcohol oxidase/Purpald). The settings on record: methane to methanol. On the procedure: The 35-E11 variant was tested for the ability to convert methane to methanol using the method of Anthon and Barrett (Agric. Food Chem., 52:3749 (2004)). The method was optimized so that it could detect methanol concentrations in water as low as 10 μM.
The mutant BM-3 enzymes described below were purified using published procedures and used as catalysts in small reactions with methane. In glass head space vials containing magnetic stirring bars, BM-3 catalyst was added to 0.1 M potassium phosphate buffer (pH=8) saturated with methane. The vials were then crimped shut and charged to 20 psi with methane. To start the biotransformation, an NADPH regeneration system consisting of NADP+, isocitrate, and isocitric dehydrogenase was added through a syringe. The reaction was allowed to stir 12-15 hours. Methanol production was measured using a coupled enzyme assay. Aliquots of the reaction were transferred to 96-well microtitre plates and reacted with the enzyme alcohol oxidase for 5 minutes at room temperature. Alcohol oxidase converts the methanol produced by the BM-3 variants into formaldehyde which can be detected with the dye Purpald. To detect formaldehyde and quench the alcohol oxidase reaction, a solution of Purpald in 2 M NaOH was added and allowed to react for one hour. The purple color that Purpald forms in the presence of formaldehyde was quantified one hour later by spectrophotometrically reading the well at 550 nm and comparing the absorbance against similarly-treated solutions of BM-3, NADPH regeneration system, and methane-free buffer spiked with known concentrations of methanol. The results of these biotransformations are reported in Table 3 and sample spectra from the colorimetric assay are shown in FIG. 7.
Reactions for enzyme-catalyzed conversion of methane to methanol were carried out in 10 mL glass headspace vials. A 470 μL reaction mixture containing 5 μM purified BM-3 variant in 0.1 M potassium phosphate buffer (pH 8.0) was first added to the vial. The vial was immediately topped with a septum, pressurized with 30 psi of methane and shaken at 4° C. for 1 hour. […] For determination of total turnover, the reaction was allowed to proceed for 20 hours at room temperature.
The amount of methanol product formed during the 20 hr methane reaction was quantified colorimetrically with the use of alcohol oxidase and Purpald. 190 μL of the reaction mixture is transferred onto a single cell of a 96 well plate. 10 μL of 0.05 U/μL solution of alcohol oxidase (from Pichia pastoris, purchased from Sigma-Aldrich) was added to cell and allowed to incubate at room temperature for 5 minutes. During this time, the alcohol oxidase converts the methanol into formaldehyde. Purpald (168 mM in 2 M NAOH) was then added to form a purple product with the formaldehyde in solution. The purple color was read approximately 1 hour later at 550 nm using a Spectramax Plus microtiter plate reader. The concentration of methanol was determined based on the measure absorbance in comparison to a methanol calibration curve. The methanol calibration curve was generated with several standards. Each standard contained 100 μL of a methanol solution (10, 20, 40, 60, 100 μM) and 90 μL of the methane reaction mixture described above, without the methane pressurization.
The relative dimethyl ether (DME) activity was measured, 1 hour after treatment with Purpald, as the average net and absorbance at 550 nm from 8 microtitre plate DME reactions of the mutant compared to 8 equivalent reactions of 35-E11. All values were normalized by measuring the P450 concentration in each well with CO binding. “Asteriks” indicate criteria used to select mutants from libraries for further characterization. The oxidation rate is measured as absorbance change at 340 nm over 1 minute upon the addition of NADPH to 8 microtitre plate wells containing P450-containing cell lysate and compared to 8 equivalent reactions of 35-E11. […]

A short description of assay [2]: High-throughput dimethyl ether (DME) screen. The settings on record: relative to 35-E11; normalized to P450 concentration. On the procedure: Cell lysates for high throughput screening were prepared as described previously (Peters et al., J. Am. Chem. Soc. 125:13442 (2003); incorporated by reference herein). High-throughput dimethyl ether (DME) screens were performed in 96 well plates as described previously. Improved mutants were selected based on an increased signal compared to 9-10A (for the saturation mutagenesis libraries) and 1-12G (for the recombination library). Reactions on octane and propane were analyzed by gas chromatography as described.
(§1) Libraries of mutants of 35-E11 were screened for phenotypes indicative of either increased product formation on small gaseous substrates slightly larger than methane. Additionally, they were screened for increased coupling of the consumption of NADPH reducing equivalents to product formation. Product formation was determined by measuring total amount of dimethyl ether hydroxylation while increased coupling was determined primarily by decreased background NADPH consumption rates (measured spectrophotometrically at 340 nm in the absence of substrate).
The relative dimethyl ether (DME) activity was measured, 1 hour after treatment with Purpald, as the average net and absorbance at 550 nm from 8 microtitre plate DME reactions of the mutant compared to 8 equivalent reactions of 35-E11. All values were normalized by measuring the P450 concentration in each well with CO binding. “Asteriks” indicate criteria used to select mutants from libraries for further characterization. The oxidation rate is measured as absorbance change at 340 nm over 1 minute upon the addition of NADPH to 8 microtitre plate wells containing P450-containing cell lysate and compared to 8 equivalent reactions of 35-E11. All values were normalized by measuring the P450 concentration in each well with CO binding. The total turnover number (TTN) was measured as the absorbance at 550 nm of methane reactions with each mutant after treatment with alcohol oxidase and
Screening libraries by spectroscopically monitoring NADPH consumption rates in the presence of the alkane often selects for mutants with NADPH oxidation rates highly uncoupled to product formation. This can be overcome through the use of surrogate substrates that mimic desired substrates, yet yield species when hydroxylated that are easily detected either directly or with the addition of a dye. For example, the screen for the high-throughput identification of mutant BM-3 enzymes with activity towards propane as described previously uses dimethyl ether (DME) as a propane surrogate substrate. Upon hydroxylation, it decomposes into methanol and dye-sensitive formaldehyde. In addition, hexyl methyl ether (HME) may be used as a surrogate for octane. It shares most of the physical properties of octane, including solubility in buffer, size, shape, and strength of its C—H bonds. When HME is hydroxylated at its methoxy carbon, it also produces an equivalent of formaldehyde which is visually detected at concentrations as low as 10 μM with the dye Purpald (see FIG. 25). Hexanal, the aldehyde product formed when the α-carbon of the hexyl group is hydroxylated, is practically unreactive towards Purpald at some concentrations used in the present screens. Formaldehyde is approximately 42 times more sensitive to Purpald than hexanal (see FIG. 26). This disproportionate response makes HME, in contrast to the symmetric ether DME, a regio-selective screen for terminal alkane hydroxylation.
High-throughput screening. Single colonies were picked and inoculated by a Qpix robot (Genetix, Beaverton, OR) into 1-mL, deep-well plates containing LB (Amp*) medium (400 μL). The plates were incubated at 30° C., 250 rpm, and 80% relative humidity. After 24 h, 50 μL from this pre-culture were used to inoculate a 2-mL, deep-well plates containing […] TB (Amp^+) medium per well. Cultures were grown at 37° C., 220 rpm, and 80% relative humidity. […]

A short description of assay [3]: Background NADPH oxidation rate in screen (cell lysate, no substrate). The note with it: relative to 35-E11. On the procedure:
as §1
The relative dimethyl ether (DME) activity was measured, 1 hour after treatment with Purpald, as the average net and absorbance at 550 nm from 8 microtitre plate DME reactions of the mutant compared to 8 equivalent reactions of 35-E11. All values were normalized by measuring the P450 concentration in each well with CO binding. “Asteriks” indicate criteria used to select mutants from libraries for further characterization. The oxidation rate is measured as absorbance change at 340 nm over 1 minute upon the addition of NADPH to 8 microtitre plate wells containing P450-containing cell lysate and compared to 8 equivalent reactions of 35-E11. All values were normalized by measuring the P450 concentration in each well with CO binding. The total turnover number (TTN) was measured as the absorbance at 550 nm of methane reactions with each mutant after treatment with alcohol oxidase and […]

B1: 35-E11-E464R: P450 BM-3 variant, SEQ ID NO:8; 35-E11 with E464R (protein)
chain: TIKEMPQPKTFGELKNLPLLNTDKPVQALMKIADELGEIFKFEAPGCVTRYLSSQRLIKEACDESRFDKNLSQALKFFRDFSGDGLFTSWTHEINWKKAHNILLPSFSQQAMKGYHAMMVDIAVQLVQKWERLNADEHIEVSEDMTRLTLDTIGLCGFNYRFNSFYRDQPHPFIISMVRALDEVMNKLQRANPDDPAYDENKRQCQEDIKVMNDLVDKIIADRKARGEQSDDLLTQMLNGKDPETGEPLDDGNISYQIITFLIAGHETTSGLLSFALYFLVKNPHVLQKVVEEAARVLVDPVPSYKQVKQLKYVGMVLNEALRLWPTFPAFSLYAKEDTVLGGEYPLEKGDEVMVLIPQLHRDKTIWGDDVEEFRPERFENPSAIPQHAFKPFGNGQRACIGQQFALHEATLVLGMMLKHFDFEDHTNYELDIKETLTLKPEGFVVKAKSKKIPLGGIPSPSTRQSAKKVRKKAENAHNTPLLVLYGSNMGTAEGTARDLADIAMSKGFAPQVATLDSHAGNLPREGAVLIVTASYNGHPPDNAKQFVDWLDQASADEVKGVRYSVFGCGDKNWATTYQKVPAFIDETLAAKGAENIADRGEADASDDFEGTYEEWREHMWSDVAAYFNLDIENSEDNKSTLSLQFVDSAADMPLAKMHGAFSTNVVASKELQQPGSARSTRHLEIELPKEASYQEGDHLGVIPRNYEGTVNRVTARFGLDASQQIRLEAEEEKLAHLPLAKTVSVEELLQYVELQDPVTRTQLRAMAAKTVCPPHKVELEALLEKQAYKEQVLAKRLTMLELLEKYPACEMKFSEFIALLPSIRPRYYSISSSPRVDEKQASITVSVVSGEAWSGYGEYKGIASNYLAELQEGDTITCFISTPQSEFTLPKDPETPLIMVGPGTGVAPFRGFVQARKQLKEQGQSLGEAHLYFGCRSPHEDYLYQEELENAQSEGIITLHTAFSRMPNQPKTYVQHVMEQDGKKLIELLDQGAHFYICGDGSQMAPAVEATLMKSYADVHQVSEADARLWLQQLEEKGRYAKDVWAG
modifications: mutant P450 35-E11-E464R protein sequence
notes: 35-E11 with E464R
Take B1: the “Methane TTN” value in assay [1] is reported as 12. In addition, the “Relative DME activity in screen” value in assay [2] is 0.9. Besides, the “Relative background NADPH oxidation rate” value in assay [3] is listed as 0.6*.

B2: 35-E11-E464T: P450 BM-3 variant, SEQ ID NO:10; 35-E11 with E464T (protein)
chain: B1 chain with R464T
modifications: mutant P450 35-E11-E464T protein sequence
notes: 35-E11 with E464T
In the case of B2, the “Methane TTN” value in assay [1] amounted to 11. The “Relative DME activity in screen” value in assay [2] is 0.8. Moreover, in assay [3], the “Relative background NADPH oxidation rate” value is 0.7*.

B3: 21-4G: P450 BM-3 variant, SEQ ID NO:13; 35-E11 plus D631N (protein)
chain: B1 chain with R464G, D631N
modifications: Mutant P450 21-4G protein sequence
notes: 35-E11 plus D631N
On to B3, for which the “Methane TTN” value in assay [1] worked out at 10. Further, the “Relative DME activity in screen” value in assay [2] is 1.1. Moreover, in assay [3], the “Relative background NADPH oxidation rate” value is 0.7*.

B4: 35-E11-E464Y: P450 BM-3 variant, SEQ ID NO:9; 35-E11 with E464Y (protein)
chain: B1 chain with R464Y
modifications: mutant P450 35-E11-E464Y protein sequence
notes: 35-E11 with E464Y
On to B4, for which, in assay [1], the “Methane TTN” value was 13. Further, the “Relative DME activity in screen” value in assay [2] is 0.8. The “Relative background NADPH oxidation rate” value in assay [3] is 0.7*.

B5: 23-1D: P450 BM-3 variant, SEQ ID NO:12; 35-E11 plus Q645R, P968L (protein)
chain: B1 chain with R464G, Q645R, P968L
modifications: Mutant P450 23-1D protein sequence
notes: 35-E11 plus Q645R, P968L
With B5, in assay [1], the “Methane TTN” value was 11. For the same molecule, the “Relative DME activity in screen” value in assay [2] was found to be 0.7. In addition, the “Relative background NADPH oxidation rate” value in assay [3] is listed as 0.8*.
